Reference: FireProtDB

Conditions: Escherichia coli (strain K12), Thermal, CD, whole UniProt chain shown; for unfolding free energy: reversible: yes
[1] = pH 0.53, glycine-HCl 10 mM, reversible: yes (95%)
[2] = pH 0.83, glycine-HCl 10 mM, reversible: yes (96%)
[3] = pH 1.02, glycine-HCl 10 mM, reversible: yes (98%)
[4] = pH 1.07, glycine-HCl 10 mM, reversible: yes (88%)
[5] = pH 1.08, glycine-HCl 10 mM, reversible: yes (102%)
[6] = pH 1.14, glycine-HCl 10 mM, reversible: yes (101%)
[7] = pH 1.24, glycine-HCl 10 mM, reversible: yes (103%)
[8] = pH 1.28, glycine-HCl 10 mM, reversible: yes (100%)
[9] = pH 1.3, glycine-HCl 10 mM, reversible: yes (101%)
[10] = pH 1.31, glycine-HCl 10 mM, reversible: yes (94%)
[11] = pH 1.4, glycine-HCl 10 mM, reversible: yes (91%)
[12] = pH 1.41, glycine-HCl 10 mM, reversible: yes (98%)
[13] = pH 1.45, glycine-HCl 10 mM, reversible: yes (101%)
[14] = pH 1.52, glycine-HCl 10 mM, reversible: yes (107%)
[15] = pH 1.55, glycine-HCl 10 mM, reversible: yes (93%)
[16] = pH 1.55, glycine-HCl 10 mM, reversible: yes (104%)
[17] = pH 1.62, glycine-HCl 10 mM, reversible: yes (100%)
[18] = pH 1.63, glycine-HCl 10 mM, reversible: yes (108%)
[19] = pH 1.67, glycine-HCl 10 mM, reversible: yes (108%)
[20] = pH 1.71, glycine-HCl 10 mM, reversible: yes (98%)
[21] = pH 1.75, glycine-HCl 10 mM, reversible: yes (90%)
[22] = pH 1.76, glycine-HCl 10 mM, reversible: yes (101%)
[23] = pH 1.79, glycine-HCl 10 mM, reversible: yes (104%)
[24] = pH 1.84, glycine-HCl 10 mM, reversible: yes (110%)
[25] = pH 1.94, glycine-HCl 10 mM, reversible: yes (88%)
[26] = pH 2, glycine-HCl 10 mM, reversible: yes (98%)
[27] = pH 2.03, glycine-HCl 10 mM, reversible: yes (109%)
[28] = pH 2.04, glycine-HCl 10 mM, reversible: yes (95%)
[29] = pH 2.15, glycine-HCl 10 mM, reversible: yes (92%)
[30] = pH 2.18, glycine-HCl 10 mM, reversible: yes (90%)
[31] = pH 2.22, glycine-HCl 10 mM, reversible: yes (95%)
[32] = pH 2.39, glycine-HCl 10 mM, reversible: yes (95%)
[33] = pH 2.45, glycine-HCl 10 mM, reversible: yes (96%)
[34] = pH 2.53, glycine-HCl 10 mM, reversible: yes (92%)
[35] = pH 2.65, glycine-HCl 10 mM, reversible: yes (91%)
[36] = pH 2.79, glycine-HCl 10 mM, reversible: yes (92%)
[37] = pH 2.86, glycine-HCl 10 mM, reversible: yes (97%)
[38] = pH 2.95, glycine-HCl 10 mM, reversible: yes (92%)
[39] = pH 3.06, glycine-HCl 10 mM, reversible: yes (90%)
[40] = pH 3.1, glycine-HCl 10 mM, reversible: yes (85%)
[41] = pH 3.11, glycine-HCl 10 mM, reversible: yes (91%)
[42] = pH 3.18, glycine-HCl 10 mM, reversible: yes (93%)
[43] = pH 3.25, glycine-HCl 10 mM, reversible: yes (94%)
[44] = pH 3.26, glycine-HCl 10 mM, reversible: yes (95%)
[45] = pH 3.34, glycine-HCl 10 mM, reversible: yes (94%)
[46] = pH 3.38, glycine-HCl 10 mM, reversible: yes (96%)
[47] = pH 3.64, glycine-HCl 10 mM, reversible: yes (93%)
[48] = pH 3.98, glycine-HCl 10 mM, reversible: yes (93%)
[49] = pH 4, glycine-HCl 10 mM, reversible: yes (94%)

B1: Ribonuclease HI wild type, P0A7Y4 (protein)
chain: MLKQVEIFTDGSCLGNPGPGGYGAILRYRGREKTFSAGYTRTTNNRMELMAAIVALEALKEHCEVILSTDSQYVRQGITQWIHNWKKRGWKTADKKPVKNVDLWQRLDAALGQHQIKWEWVKGHAGHPENERCDELARAAAMNPTLEDTGYQVEV
- Tm [1]: 23.6 °C
- unfolding enthalpy (van 't Hoff) [1]: 41.2 kcal/mol
- Tm [2]: 23.9 °C
- unfolding enthalpy (van 't Hoff) [2]: 37.3 kcal/mol
- Tm [3]: 20.4 °C
- unfolding enthalpy (van 't Hoff) [3]: 34.7 kcal/mol
- Tm [4]: 24.9 °C
- unfolding enthalpy (van 't Hoff) [4]: 35.3 kcal/mol
- Tm [5]: 22.3 °C
- unfolding enthalpy (van 't Hoff) [5]: 49.6 kcal/mol
- Tm [6]: 21.5 °C
- unfolding enthalpy (van 't Hoff) [6]: 51.5 kcal/mol
- Tm [7]: 21.5 °C
- unfolding enthalpy (van 't Hoff) [7]: 48.7 kcal/mol
- Tm [8]: 23 °C
- unfolding enthalpy (van 't Hoff) [8]: 52.7 kcal/mol
- Tm [9]: 21.2 °C
- unfolding enthalpy (van 't Hoff) [9]: 56.9 kcal/mol
- Tm [10]: 20.9 °C
- unfolding enthalpy (van 't Hoff) [10]: 45.5 kcal/mol
- Tm [11]: 20.3 °C
- unfolding enthalpy (van 't Hoff) [11]: 52.9 kcal/mol
- Tm [12]: 21 °C
- unfolding enthalpy (van 't Hoff) [12]: 46.1 kcal/mol
- Tm [13]: 21.8 °C
- unfolding enthalpy (van 't Hoff) [13]: 52 kcal/mol
- Tm [14]: 21.5 °C
- unfolding enthalpy (van 't Hoff) [14]: 55.3 kcal/mol
- Tm [15]: 21.7 °C
- unfolding enthalpy (van 't Hoff) [15]: 53.4 kcal/mol
- Tm [16]: 20.8 °C
- unfolding enthalpy (van 't Hoff) [16]: 54.4 kcal/mol
- Tm [17]: 20.6 °C
- unfolding enthalpy (van 't Hoff) [17]: 56.4 kcal/mol
- Tm [18]: 21.9 °C
- unfolding enthalpy (van 't Hoff) [18]: 55.7 kcal/mol
- Tm [19]: 23.6 °C
- unfolding enthalpy (van 't Hoff) [19]: 70.6 kcal/mol
- Tm [20]: 21.1 °C
- unfolding enthalpy (van 't Hoff) [20]: 58.3 kcal/mol
- Tm [21]: 21.7 °C
- unfolding enthalpy (van 't Hoff) [21]: 72.5 kcal/mol
- Tm [22]: 25.2 °C
- unfolding enthalpy (van 't Hoff) [22]: 78.5 kcal/mol
- Tm [23]: 23.9 °C
- unfolding enthalpy (van 't Hoff) [23]: 60.7 kcal/mol
- Tm [24]: 23.9 °C
- unfolding enthalpy (van 't Hoff) [24]: 64.8 kcal/mol
- Tm [25]: 24.8 °C
- unfolding enthalpy (van 't Hoff) [25]: 74.6 kcal/mol
- unfolding free energy (pH 2, 10 °C, glycine-HCl 10 mM): 2 kcal/mol
- Tm [26]: 26.5 °C
- unfolding enthalpy (van 't Hoff) [26]: 61.3 kcal/mol
- Tm [27]: 28.7 °C
- unfolding enthalpy (van 't Hoff) [27]: 67.9 kcal/mol
- Tm [28]: 28.5 °C
- unfolding enthalpy (van 't Hoff) [28]: 70.6 kcal/mol
- Tm [29]: 29.9 °C
- unfolding enthalpy (van 't Hoff) [29]: 67.1 kcal/mol
- Tm [30]: 32.5 °C
- unfolding enthalpy (van 't Hoff) [30]: 63.5 kcal/mol
- Tm [31]: 33 °C
- unfolding enthalpy (van 't Hoff) [31]: 65.8 kcal/mol
- Tm [32]: 35.5 °C
- unfolding enthalpy (van 't Hoff) [32]: 66.7 kcal/mol
- Tm [33]: 35.4 °C
- unfolding enthalpy (van 't Hoff) [33]: 71.8 kcal/mol
- Tm [34]: 39.8 °C
- unfolding enthalpy (van 't Hoff) [34]: 76 kcal/mol
- Tm [35]: 42.3 °C
- unfolding enthalpy (van 't Hoff) [35]: 81.3 kcal/mol
- Tm [36]: 46.1 °C
- unfolding enthalpy (van 't Hoff) [36]: 89 kcal/mol
- Tm [37]: 46.4 °C
- unfolding enthalpy (van 't Hoff) [37]: 80.5 kcal/mol
- Tm [38]: 50.1 °C
- unfolding enthalpy (van 't Hoff) [38]: 91.6 kcal/mol
- unfolding free energy (pH 3, 10 °C, glycine-HCl 10 mM): 8.14 kcal/mol
- unfolding free energy (pH 3, 25 °C, glycine-HCl 10 mM): 6.08 kcal/mol
- Tm [39]: 50.7 °C
- unfolding enthalpy (van 't Hoff) [39]: 102 kcal/mol
- Tm [40]: 53.9 °C
- unfolding enthalpy (van 't Hoff) [40]: 106 kcal/mol
- Tm [41]: 52.2 °C
- unfolding enthalpy (van 't Hoff) [41]: 101 kcal/mol
- Tm [42]: 54 °C
- unfolding enthalpy (van 't Hoff) [42]: 102 kcal/mol
- Tm [43]: 55.1 °C
- unfolding enthalpy (van 't Hoff) [43]: 109 kcal/mol
- Tm [44]: 58.9 °C
- unfolding enthalpy (van 't Hoff) [44]: 96.6 kcal/mol
- Tm [45]: 57.6 °C
- unfolding enthalpy (van 't Hoff) [45]: 100 kcal/mol
- Tm [46]: 57.4 °C
- unfolding enthalpy (van 't Hoff) [46]: 101 kcal/mol
- Tm [47]: 62.1 °C
- unfolding enthalpy (van 't Hoff) [47]: 106 kcal/mol
- Tm [48]: 66 °C
- unfolding enthalpy (van 't Hoff) [48]: 125 kcal/mol
- unfolding free energy (pH 4, 10 °C, glycine/HCl 10 mM): 12 kcal/mol
- unfolding free energy (pH 4, 25 °C, glycine-HCl 10 mM): 10 kcal/mol
- Tm [49]: 66.6 °C
- unfolding enthalpy (van 't Hoff) [49]: 112 kcal/mol
